Experimental findings from the DeepSol protein solubility set are described below.

The data set is described as follows: soluble on expression in E. coli; label from the status in PepcDB or PDB records.
As to “MRGGMGNMQKMMKQMQKMQKDMAKAQEELAEKVVEGTAGGGMVTVKANGQKEILDVIIKEEVVDPEDIDMLQDLVLAATNEALKKVDEITNETMGQFTKGMNMPGLF”, the “soluble on expression in E. coli” value is “soluble”. The same measure for “MRGLLILLLSLICLATPVLAQPVAAEQPLPDIRQRGFVYCVSGILNTFNPQMASSGLTVDTLAAQLYDRLLDVDPYTYRLIPELAESWQVLDNGATYRFHLRKDVPFQTTDWFTPTRMMNADDVVFSFQRVFDSKHPYHKVNGGEYPYFDSLQFASAVKSVKKLDDYTVEFKLKAPDASFLWHLATHYAPVLSSEYADVLTQKGKEEQIDREPVGTGPFLLDEYRSGQYIRLFRNSHYWKGVPRMPQVVIDLGVGGTGRLSKLLTGECDVLAYPAASQLSILRDDPPRLRLTLRPGMNVAYLAFNTRKPPLSDQRVRQAIALSINNQRLMQSIYYGTAETAASILPRASWAYDNQAQVTEYNPEKAKEILKDLGITQLQLNLWVPTASQSYNPSPLKTAELIQADLAQVGISVTIVPVEGRFQEARLMEMNHDLTLSGWSTDSNDPDSFFRPLLSCAAIRSQTNYAHWCDPAFDELLQKALRSQQLSERIEYYQQAQRILEQQLPLLPLASSLRLQAYRYDIKGLVLSPFGNSSFAGVYRESDEGKTP”: “not soluble”; for “MRGPLLPPTVPGWRSRAERFDMAVLEAYEPIERRWQERVSQLDIAVDEIPRIAAKDPESVQWPPEVIADGPIALARLIPAGVDVRGNATRARIVLFRKPIERRAKDTEELGELLHEILVAQVAIYLDVDPSVIDPTIDD”: “soluble”. The same measure for “MRGSHHHHHHGSELSKSSIVDKVELDHTTLYQGEMTSIKVSFSDKENQKIKPGDTITLTLPDALVGMTENDSSPRKINLNGLGEVFIYKDHVVATFNEKVESLHNVNGHFSFGIKTLITNSSQPNVIETDFGTATATQRLTIEGVTNTETGQIERDYPFFYKVGDLAGESNQVRWFLNVNLNKSDVTEDISIADRQGSGQQLNKESFTFDIVNDKETKYISLAEFEQQGYGKIDFVTDNDFNLRFYRDKARFTSFIVRYTSTITEAGQHQATFENSYDINYQLNNQDATNEKNTSQVKNVFVEGEASGNQNVEMPTEESLDIPLETIDEWEPKTPTSEQATETSEKTD”: “soluble”; for “MRGSHHHHHHGSIQKTTIAADSSSKPRGINYDTGIPFNVLIVDDSVFTVKQLTQIFTSEGFNIIDTAADGEEAVIKYKNHYPNIDIVTLDITMPKMDGITCLSNIMEFDKNARVIMISALGKEQLVKDCLIKGAKTFIVKPLDRAKVLQRVMSVFVK”: “soluble”. The same measure for “MRGSHHHHHHTDPALRAAFRMSEQPRTIKIYNLLAGTNEFIGEGDAYIPPHTGLPANSTDIAPPDIPAGFVAVFNSDESSWHLVEDHRGKTVYDVASGNALFISELGPLPENVTWLSPEGEFQKWNGTAWVKDTEAEKLFRIREAEETKNNLMQVASEHIAPLQDAADLEIATEEEISLLEAWKKYRVLLNRVDTSTAQDIEWPALPGLCGR”: “soluble”; for “MRGSHHHHHHTDPALRAKRAVVVFSGGQDSTTCLVQALQQYDEVHCVTFDYGQRHRAEIDVARELALKLGARAHKVLDVTLLNELAVSSLTRDSIPVPDYEPEADGIPNTFVPGRNILFLTLAAIYAYQVKAEAVITGVCETDFSGYPDCRDEFVKALNHAVSLGMAKDIRFETPLMWIDKAETWALADYYGKLDLVRNETLTCYNGFKGDGCGHCAACNLRANGLNHYLADKPTVMAAMKQKTGLRGLCGR”: “soluble”.

On to “MRHCGWLLGLLSLFSLATHASDWQEIKNEAKGQTVWFNAWGGDTAINRYLDWVSGEMKTHYAINLKIVRLADAADAVKRIQTEVAAGRKTGGSVDLLWVNGENFRTLKEANLLQTGWAETLPNWRYVDTQLPVREDFSVPTEGAESPWGGAQLTFIARRDVTLQPPQTPQALLEFAKANPGTVTYPRPPDFTGTAFLEQLLIMLTPDPTALKEAPDDATFARVTAPLWQYLDALHPYLWREGKDFPPSPARMDALLKANTLRLSLTFNPAHAQQKIASGDLPASSYSFGFREGMIGNVHFVTIPANANASAAAKVVANFLLSPDAQLRKADPAVWGDPSVLDPQKLPDGQRESLQSRMPQDLPPVLAEPHAGWVNALEQEWLHRYSTH”, for which the “soluble on expression in E. coli” value is listed as “not soluble”. The same measure for “MRHTCPKVTLRQRAIRNGRISLYLDYYPAVRNPETMQMSRREYLGIYIYAHPKNEMEREFNMDMLNKAEAIRCIRVQSLINEEFGFLDRTKMKTDFLAYFLKMCRKKDQKWRIVYQHFYNYVQGHCTFGDITIELCQGFREYLLNAKQLKRKGKVSTNSASGYYSTFRGLLKIAYRDKWLRENINDFLDKIEAKEVKKEYLTLDEVKILAQTPCEHDVLKRASLFSCLTGLRISDILNLRWEDFTLAPDQGYCIRIRTQKTSTEATLPIS”: “not soluble”; for “MRHYKTLRYYETVFAVKPTLSEEEMKKKFEQVKEFIKQKGGEILYEEDWGMRQLAYPIQKFNNARYFLVQFKTENPQLPNELDFQLKIDEDVIRWLNIQIKESEVKKNAQ”: “soluble”; for “MRIAANACPALVLNADFQPLSYFPLSLWSWQEAVKAVFMDRVCVVSEYDRVVHSPSLDLSLPSVISLKEYVPVAKRAAFTRFNVFLRDGFACQYCGIRLPAHDLTFDHVVPRSKGGVTAWNNVVTACGPCNMRKANRTPREAAMPLLQRPAEPSTHRLRNEGRSFPPGYLHESWRDFLYWDVELDPFLEHHHHHH”: “not soluble”. Then “MRIEEFDYELPEELIAKYPAVPRHSARLMVLNRKDQSIKHDTFINLPDYLEEGDLLVFNNTKVIPARLYGRKPTGGRVEVVLTDFIKPDEWKALIGGKKIRPGLVIEVAPDFKVEVLEHIEEGKFRVKLLGEEPLKLIDKYGHIPIPPYLKREEEPIDRVYYQTIFAKEKGAVASPTASLHFSEELLEKLKEKGINFAFITLHVSYGTFKPVKVERVEEHRVDPEYVKIPKETVEKIKETKEKGKRVVAVGTTVVRALETKPFEPFEGWTDLYIYPGFKFKVVDAMITNFHLPRSSLLILVSAFAGREFILKAYREAVEKRYRFYSYGDGMLIL”, with “soluble”; and “MRIFPVFLLTFSLFLIKEEIVTAEVKVSAPVVNQSGIKLNLERQFTGSDVAINRIHFSPDGQFLLTAAADGVGTLWTKEGEMLGQLQGQKPPMFNARLSPDRQILITTGYDGTIRLWNLQGELLEEQQPHRAAVADAIFSPDSQIIVTCSDDGQTKIFTRQGQEIASVLKSGTARNLAYHPQGLLIASVSDSGSLHLINPNGKIEREISTGQGRINNVNFSPNGEQLLTSGINGSAKLWNLAGELIHEYKVVPTGWVNSAQFYPKGEWLATASDDGTIRFWQKDGQLIYELPLVNARLTSLSFSPDGKQLAATSSQGQVWVFNLSYLEHHHHHH”, with “not soluble”; and “MRIGIVGAGLGGLLAGALLSKNHEVVVFEKLPFLGGRFTNLKYEGFQLTTGALHMIPHGNDGYLAQALRKAGANVKIINSKPDGTFLINGKEYLYKELFSLLGFKEKAKAFKLATKLKLGKVDKNISFGEFLEEIDLALKVGNAFTGWALSLTAYETPMSEIIEIAKNYHKFGGPGIPIGGCKAVTDELSRIIKKNNGKIIKEYEVKRIEIDEKAYIDDYEFDVVISNISPIETQKICNIKFLKSKPKPSKGIKISIATKEGIIKHGGVLFTPECERINGLNQVTNVDKSLAPEGWHLVMTHQTQLTNNVKKEIDLGLEDIENLFKGKDYKILHIQSYRDDWPVNHASNGTDIDNIVNDRFYLVGDGAKGRGGIEVEGIAMGVLKVVNYINSLLEHHHHHH”, with “soluble”. Then “MRIGPELLQDLLDRVEGSLAAAIGTADGLLVEGVRKRPLDLEAAIAEHAALWRQARAAYARSLGAEEVGELLVGGTGVVGYLRSMRTRDPEPLFLLLLLTPEANLGQARLAARRLLDRAGGVVAWPT”, with “soluble”; and “MRIHILGICGTFMGGLAMLARSLGHEVTGSDANVYPPMSTLLEKQGIDLIQGYDASQLDPQPDLVIIGNAMTRGNPCVEAVLEKNIPFMSGPQWLHDFVLRDRWVLAVAGTHGKTTTAGMATWILEACGYKPGFVIGGVPGNFEVSARLGESPFFVIEADEYDCAFFDKRSKFVHYCPRTLILNNLEFDHADIFDDLKAIQKQFHHLVRIVPGQGRIIWPENDINLKQTMALGCWSEQELVGEQGHWQAKKLTTDASEWEVWLDGEKVGDVKWGLVGEHNMHNGLMAIAAARHVGVAPAEAASALGSFINARRRLELRGEANGVTVYDDFAHHPTAILATLAALRGKVGGTARIIAVLEPRSNTMKMGLCKDDLAPSLGRADEVFLLQPPHIPWQVAEVAEACVQPAHWSGDVDTLAEMVVKTAQPGDHILVMSNGGFGGIHQKLLDGLAKKAQNVTAY”, with “not soluble”. Turning to “MRILWILPYSPWPTTSGGKTRQYHLLRSLAARGHRITVLLHSKQPVSAEDRQALEPFLERLVVLPRRPLRSLSTLLAALFAPYPLLASVNGLSAELQRTATELLREPWDVVQVEHSYSFQPYERPLRDAGQPFVLTEHNVESSLGAATYDRLPGWALPFVRYDQWRYRRWERRVMSQAAAVVAVTEKDARQLGAMLGRPVPVVVNGVDCEHFATARPTPEAQRVLFLGNYEYAPNVDAVEWMLDEILPRVWAHCPEARMSVCGYALPAEWAQRWSDPRIEWQGFVPDLLQLQSSSSVFLAALRHGGGSKLKVLEALAAGLPLASTAQGVSGLELRDGEDYLGGESAEQLANAVVRLLQDPAQARALGENGRAYVRRAHDWSVAASQLEQVYAGLAEGAPACA”, the “soluble on expression in E. coli” value is on record as “not soluble”. The same measure for “MRITLIVLAALSFACTSCWFETGPDRFIYQLSWFCAESSCERGDDLNQFNRAETYGTDFAMSSTSASDLATSATIVVSATLGRDCRLVLDLVLFGHELDESILCFTPNGFELTVTIPDEDPETSSTWVVMAREL”: “not soluble”; for “MRIVAPVMPRHFDEAQAIDISKYEDVNLIEWRADFLPKDEIVAVAPAIFEKFAGKEIIFTLRTVQEGGNITLSSQEYVDIIKEINAIYNPDYIDFEYFTHKSVFQEMLDFPNLILSYHNFEETPENLMEAFSEMTKLAPRVVKIAVMPQSEQDVLDLMNYTRGFKTLNPEQEFATISMGKLGRLSRFAGDVIGSSWTYVSLDHVSGPGQVTLNDMKRIIEVLEMDISN”: “soluble”; for “MRKEVEQLALMGAMPDETDEPTDVLIDKYADLLGKITKPITLDEAHILIKLFPPTALYGIEWTLLHLIESVYPETEFIKYKELINECNSVEFREMLVQRLNNSQQNKVTNK”: “not soluble”. Then “MRKIKLIAVVGPTAVGKTALGIELAKTFNGEIISGDSQQVYQKLDIGTAKASKEEQEQAYHHLIDVREVNENYSVYDFVKEAKVAIDTIISKGKIPIIVGGTGLYLQSLFEGYHLGGEVNQETLMAYREKLESLSDEDLFEKLTEQSIIIPQVNRRRAIRALELAKFGNDLQNSESPYDVLLIGLNDDRQVLYDRINRRVDLMMDNGLLDEAKWLYDNYPSVQASKGIGYKELFPYFSKQIPLEEAVDKLKQNTRRFAKRQLTWFRNRMNVEFIMVGEENYQQKIKRKVSDFLSSKLEHHHHHH”, with “soluble”; and “MRKSLEIGKCVVLEVLTPRGTNLGRFMEFTEEAWKTGIDAFTVTDMPMGRVRMAPWAASHLLVESGKDVLMHFTRNTRNMIRIQSDLLGCHALGVKNLLLLSGDNPSHGDYPETTSVNDIDILDLIRLTKLMNEGTDLAGNKIYGKTDFFVGGALNPFSDKDIKRAKQKIEAGVDFLVTQPLFNSEVAKKIKEELNTKILASIVFFENAKQMSYFSSVPGIEIPDEIVNSTEKGDDYLKEKSFESVLRFVEETKGVLDGFYIVAIVKDLEKIRKVVEIAKS”, with “not soluble”.
